What was measured:
[1] = system: GST fusion protein containing the first 70 amino acids of p53 (GST-p531-70)
[2] = target: GST-hUpf11019-1118 (GST fused to the carboxyl-terminal region of hUpf1, amino acids 1019-1118) (UniProt Q92900)
PHAS-I/4E-BP1 protein = PHAS-I/4E-BP1 protein (UniProt Q13541)
Chain of PHAS-I/4E-BP1 protein (Q13541 whole entry): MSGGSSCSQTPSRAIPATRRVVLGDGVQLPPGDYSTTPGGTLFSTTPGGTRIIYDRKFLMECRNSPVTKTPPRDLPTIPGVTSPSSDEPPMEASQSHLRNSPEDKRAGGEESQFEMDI

Chain of GST fusion protein containing the first 70 amino acids of p53 (GST-p531-70) (chain, as listed by the source): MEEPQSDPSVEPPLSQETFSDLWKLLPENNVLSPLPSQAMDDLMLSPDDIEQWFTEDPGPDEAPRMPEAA
Chain of GST-hUpf11019-1118 (GST fused to the carboxyl-terminal region of hUpf1, amino acids 1019-1118) (Q92900 1019-1118): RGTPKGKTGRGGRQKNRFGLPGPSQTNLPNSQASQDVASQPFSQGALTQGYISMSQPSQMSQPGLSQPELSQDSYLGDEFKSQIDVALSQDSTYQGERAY

Row | Substance | phosphorylation of substrate in immune complex kinase assay, compared with GST-hUpf11019-1118 [1] | specific kinase activity in immune complex kinase assay (ratio of 32P incorporation into substrate to level of HA-tagged kinase) [1] | phosphorylation of substrate in immune complex kinase assay [2] | phosphorylation of substrate in immune complex kinase assay (GST-p531-70(S15A)) | phosphorylation of substrate in immune complex kinase assay (PHAS-I/4E-BP1 protein) | specific kinase activity in immune complex kinase assay [1]
1 | HA-tagged wild-type ATX (HA-ATXWT) | GST-p531-70 was more avidly phosphorylated by ATX than was the GST-hUpf11019-1118 substrate | the specific kinase activity of ATXWT was approximately 3.5-fold higher than that of ATMWT | phosphorylated by both ATM and ATX, with the latter protein kinase showing the higher specific catalytic activity | nearly abolished | poorly phosphorylated | –
2 | HA-tagged wild-type ATM (HA-ATMWT) | – | – | phosphorylated by both ATM and ATX | – | – | the specific kinase activity of HA-ATXWT towards GST-p531-70 was significantly higher than that of HA-ATM

Source: patent US20040248244
